One data set is described as follows: Thermostability. The data set is classed as physicochemical.
Another data set concerns the target T1, mIL22 (Mus musculus, UniProt Q9JJY9).
T1 sequence (Q9JJY9 34-179): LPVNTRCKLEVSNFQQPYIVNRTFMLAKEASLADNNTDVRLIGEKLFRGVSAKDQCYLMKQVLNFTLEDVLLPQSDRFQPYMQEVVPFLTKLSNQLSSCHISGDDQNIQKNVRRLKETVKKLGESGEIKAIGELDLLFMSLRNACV
The data set can be described thus: Inhibition of mIL-22 induced acute phase response (SAA) in mice. The data set is classed as in vivo. To be noted: 5 μg mIL22 and 50 μg mAb; molar ratio of mIL 22:mAb = 1:2.2; SAA in mice at 24 hours. The procedure:
IL-22 induces acute phase responses in animals such as mice and humans. The mutant antibodies of the present invention can inhibit the acute phase response induced by IL-22. This acute phase response is indicated by the concentration of serum amyloid (SAA) in the blood of the animal as shown in FIG. 11. The SAA concentrations in the blood of mice were measured 24 hours after treatment of the mice by IL-22 and/or the mutant antibodies. When only IL-22 is used, the SAA concentration was high.
5 μg mIL-22 was used to stimulate an acute phase response in mice. The acute phase response was measured by the concentration of serum amyloid (SAA) in the blood of the mice. The anti-IL-22 antibodies were administered at two different dosage levels to inhibit the IL-22 induced acute phase response: 5 μg and 50 μg. Five mice were used for each dose group. The SAA concentrations were measured at 24 hours after injection of IL-22 and/or antibodies and the results are shown in FIG. 11.

For data set [1], the system named is imiquimod (IMQ) induced psoriasis. The data set is classed as in vivo. An excerpt:
Two anti-IL-22 antibodies of the present invention, CPS02 and CPS09, were used for the treatment of imiquimod (IMQ) induced psoriasis in mice (FIG. 12). The mice were male BALB/c mice, which were an albino, laboratory-bred strain of the house mouse. A total of 70 mice, at a body weight of 18-20 g, were acclimated for 7 days before induction of psoriasis.
The 70 mice were randomized into 7 groups (10 mice in each group). One group (group 1) was used as a negative control to which no imiquimod was administered to the mice, which was instead replaced with Vaseline. […] The other 6 groups (groups 2-7) were dosed topically with imiquimod at a dosage of 82.5 mg/mouse (5% cream) once daily (qd) for 8 consecutive days from day 0 to day 7 (20 mg for the left ear, 62.5 mg for the shaved back) to induce psoriasis. The back skin was shaved to expose an area of 2×3 cm^2. For the Vaseline control group, the Vaseline was also applied at 82.5 mg/mouse once daily (qd) for 8 consecutive days (20 mg for left ear, 62.5 mg for the shaved back) from day 0 to day 7.
Group 2 was a group of psoriasis-induced mice that were untreated to serve as a control group. The treatment period completely overlapped with the imiquimod application period (day 0 to day 7). For group 2, the mice received both imiquimod and […] on each day of the 8-day period (day 0 to day 7). For the groups that received intravenous (I.V.) injection, the imiquimod was applied within one hour after the I.V. injection on days 0 and 3.
Group 3 was treated with the steroid dexamethasone, which is a current therapeutic treatment used for psoriasis. The dexamethasone was topically applied twice a day (BID) for 8 days. Group 4 was treated with phosphate-buffered saline (PBS), which served as a negative control. Group 5 was treated with an isotype control antibody that also served as a negative control. Groups 6-7 were treated with the anti-IL22 antibodies CPS02 (A) and CPS09 (B), respectively. The treatments for Groups 4-7 were administered by a single intravenous (I.V.) injection on each of days 0 and 3. 3 mice in group 6 died on day 0 and 2 died on day 1. On day 3, the I.V. injection dosage for this group was decreased to 10 mg/kg.
During the 8 day treatment period, the ear thickness was measured on days 0, 3, 5 and 7. The body weight and various skin scores were recorded daily. Pictures of the psoriasis sites were taken on days 0, 3, 5 and 7. On days 1 and 4, about 60 μl blood was collected via retro-orbital bleeding over 24 hours and placed in BD Microtainer® tubes coated with dipotassium ethylenediaminetetraacetic acid (K2EDTA). Plasma was then collected (to get at least 20 μl plasma) and stored at −80° C.
Skin scores for erythema, scales and thickness were measured daily according to an established grading system. The erythema, scales and thickness were scored independently on a scale of from 0 to 4: 0 means none, 1 means slight, 2 means moderate, 3 means marked, and 4 means very marked. The cumulative (total) skin score was also calculated.
The effects of the treatments were analyzed statistically using two-way analysis of variance (ANOVA, Bonferroni post-tests) or one-way ANOVA analysis. For comparisons between the treatment groups and the control group, the p value is denoted in FIGS. 13-18 as (*) if less than 0.05, (**) if less than 0.01, or (***) if less than 0.001.

The nature of data set [2]: Aggregate formation at 10 mg/mL in PBS. It counts as physicochemical.
The next data set has as its target T2, human IL-22 (Homo sapiens, UniProt Q9GZX6).
T2 sequence (Q9GZX6 34-179): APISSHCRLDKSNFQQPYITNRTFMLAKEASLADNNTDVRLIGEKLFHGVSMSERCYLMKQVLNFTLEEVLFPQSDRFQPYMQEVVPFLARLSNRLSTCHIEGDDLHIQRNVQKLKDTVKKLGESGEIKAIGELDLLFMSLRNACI
The data set can be described thus: SPR capture assay, affinity to human IL-22. The data set is classed as binding. To be noted: human IL-22, SPR. How it is done:
The affinity of the 10 antibodies of Table 1 was measured by Surface Plasma Resonance (SPR) using a capture assay in PBS buffer to generate binding curves at four different concentrations of each antibody (0.05, 0.1, 0.5, and 1.0 μg/ml). The Ka, Kd and KD values for the mutant antibodies were calculated from the curves for each of the antibodies.
The affinity of the 10 antibodies of Table 1 was measured by Surface Plasma Resonance (SPR) using a capture assay on a SPR-2 instrument (SierraSensiors, Hamburg, Germany). The antigens hIL-22 and mIL-22 were immobilized on chips. The running buffer for the assay contained 10 mM HEPES with a pH of 7.4, 500 mM NaCl, and 0.05% TWEEN® 20. […] The off-rate was measured for 6 minutes. Binding constants were calculated using the curve fitting software Analyzer2 (Sierra Sensors). Sensorgrams were analyzed with the instrument specific software and with BIAevaluation 4.1 software. The binding data were analyzed using the Langmuir 1:1 model (human IL-22) or a model for a heterogeneous ligand ([…]).
The antibodies were tested at four different concentrations of each antibody: 0.33 nM, 0.67 nM, 3.3 nM, 6.7 nM for hIL-22; 1, 2, […] for mIL-22. Antibody CPE-LC-E049K was used as a control.

[3] abbreviates: group 6 (10 mice), 20 mg/kg I.V. on day 0.

B1: CPS02: mutant anti-IL-22 antibody binding human and mouse IL-22; light chain LC-06, heavy chain HC-08 (antibody, V domains shown)
VH: QVQLVQSGAEVKKPGASVKVSCKASGYIFRSYWIHWIRQPPGKGLEWIGRIYPGTGRTYYNEKFKGRVTISADKSISTAYLQWSSLKASDTAMYYCARSYDSSVAYWGQGTLVTVSS
VL: AIQLTQSPSSLSASVGDRVTITCSASSSVSYMHWYLQKPGQSPQLLIYKTRKLASGVPSRFSGSGSGTDFTFTISSLEAEDAATYYCQQWSSNPYITFGQGTKVEIKR
Consider B1, for which the “Thermostability (% remaining activity 60 min); of duplicate samples” value in the data set “Thermostability” stood at 104%. Further, the “Acute Phase response (% signal reduction)” value in the data set with mIL22 is “signal increase”. Besides, the “reduction in body weight of the treated mice” value in data set [1] (IMQ psoriasis mice, days 0-7, in comparison to dexamethasone / PBS (FIG. 13)) was “less reduction in body weight”. For the same molecule, in data set [1] (setting [3]), the “mice died on day 0” value was 3 mice and the “mice died on day 1” value is listed as 2 mice. Moreover, the ear skin thickness result in data set [1] (vs negative controls (isotype matched antibody, PBS, vehicle) (FIG. 14)) is recorded as “less”. The skin erythema score result in data set [1] (vs negative controls (isotype matched antibody, PBS, vehicle) (FIG. 15)) was “lower”. Besides, the skin scale score entry in data set [1] (vs negative controls (isotype matched antibody, PBS, vehicle) (FIG. 16)) is listed as “lower”. Besides, the skin thickness result in data set [1] (vs negative controls (isotype matched antibody, PBS, vehicle) (FIG. 17)) was “lower”. In data set [1] (vs negative controls (isotype matched antibody, PBS, vehicle) (FIG. 18)), the total skin score result was “lower”. Further, in data set [2], the “Aggregate formation at 10 mg/mL in PBS” value is reported as “no”. Further, in the data set with human IL-22, the ka worked out at 1.87e+06 M·s and the kd was found to be 4.67e-05 s⁻¹.

The values above are taken from patent US11834472B2, “Anti-IL-22 antibodies, antibody fragments, their immunoconjugates and uses thereof” (BioAtla, Inc., priority 2018, dated 2023).
